Assay results: article PMC10471729, “Luvadaxistat: A Novel Potent and Selective D-Amino Acid Oxidase Inhibitor Improves Cognitive and Social Deficits in Rodent Models for Schizophrenia” (Neurochemical Research, 2023)

System: T1, N[C@H](CO)C(=O)O
T1 construct: human recombinant DAAO enzyme
Experiment: Amplex Red H2O2 detection; Michaelis constant (in-house data)
Format: biochemical, Homo sapiens
Settings: FAD

Chain of D-amino acid oxidase (DAAO) (Homo sapiens) (chain, as listed by the source): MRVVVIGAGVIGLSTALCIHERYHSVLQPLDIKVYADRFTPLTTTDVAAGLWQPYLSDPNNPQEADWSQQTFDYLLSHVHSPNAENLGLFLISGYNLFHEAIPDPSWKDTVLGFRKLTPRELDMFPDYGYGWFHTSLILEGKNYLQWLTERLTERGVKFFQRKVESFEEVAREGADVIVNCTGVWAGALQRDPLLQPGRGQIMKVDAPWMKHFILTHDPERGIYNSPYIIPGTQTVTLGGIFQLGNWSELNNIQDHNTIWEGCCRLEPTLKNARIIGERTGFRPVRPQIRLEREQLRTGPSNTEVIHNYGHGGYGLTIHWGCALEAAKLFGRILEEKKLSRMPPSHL

How did the Km turn out when “D-amino acid oxidase (DAAO) (Homo sapiens)” was run?
The Km was 1200 µM.
